# T1: Nup98 (human (endogenous in HeLa), UniProt P52948 1-880)
# T1 construct: Nup98, the N-terminal product of the autoproteolytic cleavage of the Nup98-Nup96 precursor
# T1 sequence (looked up): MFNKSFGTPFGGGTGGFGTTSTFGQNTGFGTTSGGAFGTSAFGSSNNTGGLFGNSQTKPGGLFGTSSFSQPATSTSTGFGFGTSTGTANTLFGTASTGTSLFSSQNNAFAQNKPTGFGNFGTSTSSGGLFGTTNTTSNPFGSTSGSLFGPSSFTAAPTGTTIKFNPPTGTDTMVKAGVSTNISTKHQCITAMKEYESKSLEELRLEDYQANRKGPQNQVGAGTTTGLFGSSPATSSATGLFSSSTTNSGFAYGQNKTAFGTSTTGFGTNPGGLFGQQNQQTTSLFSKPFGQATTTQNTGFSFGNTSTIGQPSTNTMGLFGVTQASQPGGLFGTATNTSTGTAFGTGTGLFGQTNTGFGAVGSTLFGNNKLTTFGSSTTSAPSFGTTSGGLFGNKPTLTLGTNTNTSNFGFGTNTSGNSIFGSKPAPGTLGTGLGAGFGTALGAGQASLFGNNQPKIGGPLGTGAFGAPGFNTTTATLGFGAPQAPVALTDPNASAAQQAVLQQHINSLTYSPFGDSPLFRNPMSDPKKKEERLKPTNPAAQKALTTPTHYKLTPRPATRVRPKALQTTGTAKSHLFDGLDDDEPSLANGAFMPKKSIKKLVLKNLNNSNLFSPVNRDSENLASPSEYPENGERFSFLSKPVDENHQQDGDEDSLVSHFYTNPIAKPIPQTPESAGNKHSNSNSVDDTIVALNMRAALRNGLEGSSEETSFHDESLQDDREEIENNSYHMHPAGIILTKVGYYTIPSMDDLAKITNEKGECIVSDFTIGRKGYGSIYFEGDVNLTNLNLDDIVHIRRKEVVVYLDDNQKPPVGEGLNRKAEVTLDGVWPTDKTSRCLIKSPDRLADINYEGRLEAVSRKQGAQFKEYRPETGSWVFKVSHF
# B1: Rae1 (natural protein, human (endogenous in HeLa), UniProt P78406 1-368, looked up)
# chain: MSLFGTTSGFGTSGTSMFGSATTDNHNPMKDIEVTSSPDDSIGCLSFSPPTLPGNFLIAGSWANDVRCWEVQDSGQTIPKAQQMHTGPVLDVCWSDDGSKVFTASCDKTAKMWDLSSNQAIQIAQHDAPVKTIHWIKAPNYSCVMTGSWDKTLKFWDTRSSNPMMVLQLPERCYCADVIYPMAVVATAERGLIVYQLENQPSEFRRIESPLKHQHRCVAIFKDKQNKPTGFALGSIEGRVAIHYINPPNPAKDNFTFKCHRSNGTNTSAPQDIYAVNGIAFHPVHGTLATVGSDGRFSFWDKDARTKLKTSEQLDQPISACCFNHNGNIFAYASSYDWSKGHEFYNPQKKNYIFLRNAAEELKPRNKK
# notes: Rae1, shuttling mRNA export factor
# Target: T1, Nup98
# Assay: […] 300 mM NaCl, 20 mM Hepes pH 7.4, 0.5% Triton X-100; +4 °C; […]
# Conditions: partners not purified
binder,measurement,value
B1,stoichiometry N,~1 Nup98:Rae1
